The series is described as follows: yeast display, Sf9 membrane polyspecificity reagent, FACS + sequencing; frameworks hold sequencing errors. An outline of the steps: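 Sorting gates, low and high (top ~1%), were placed on anti-HA fluorescence to track expression and on streptavidin fluorescence to track reagent binding. A clone's polyreactivity label is taken from the gate it came out of. The reagent was 10% biotinylated, detergent-solubilized Sf9 membrane, applied for 1 hour at 4 °C to galactose-induced yeast display cells.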
“QVQLVESGGGLVQAGGSLRLSCAASGITFDYYAMGWYRQAPGKERELVAAISYSGGSTYYADSVKGRFTISRDNAKNTVYLQMNSLKPEDTAVYYCAAETFTISSDYYYWGQGTQVTVSS”: the “polyreactivity (PSR sort gate)” value is reported as “low polyreactivity”. The entry for “QVQLVESGGGLVQAGGSLRLSCAASGITFDYYAMGWYRQAPGKERELVAAITSVGNTYYADSVKGRFTISRDNAKNTVYLQMNSLKPEDTAVYYCNALSFYSLVSFDYWGQGTQVTVSS” is “low polyreactivity”; for “QVQLVESGGGLVQAGGSLRLSCAASGITFDYYAMGWYRQSPGKERELVAAISYSAGSTYYADSVKGRFTISRDNAKNTVYLQMNSLKPEDTAVYYCAAETFTISSDYYYWGQGTQVTVSS” it is “low polyreactivity”; for “QVQLVESGGGLVQAGGSLRLSCAASGITFDYYDMGWYRQAPGKERELVATITSDGSTYYADSVKGRFTISRDNAKNTVYLQMNSLKPEDTAVYYCNARRRTVPYRYDYWGQGTQVTVSS” it is “high polyreactivity”. Regarding “QVQLVESGGGLVQAGGSLRLSCAASGITFDYYGMGWYRQAPGKERELFASITSGGSTNYADSVKGRFTISRDNAKNTVYLQMNSLKPEDTAVYYCNAEFWEVSPDPRDYDYWGQGTQVTVSS”, the “polyreactivity (PSR sort gate)” value is recorded as “low polyreactivity”. Take “QVQLVESGGGLVQAGGSLRLSCAASGITFDYYSMGWYRQAPGTERELVAAISWGGGSTYYADSVKGRFTISRDNAKNTVYLQMNSLKPEDTAVYYCAADIVSSPSSYVPPGDYWGQGTQVTVSS”: the “polyreactivity (PSR sort gate)” value is on record as “low polyreactivity”. “QVQLVESGGGLVQAGGSLRLSCAASGITFDYYVMGWYRQAPGKERELVAAISWSGGTTYYADSVKGRFTISRDYAKNTVYLQMNSLKPEDTAVYYCNAEHTGSFYGGYPWEMEYWGQGTQVTVSS”: the “polyreactivity (PSR sort gate)” value is “low polyreactivity”. The entry for “QVQLVESGGGLVQAGGSLRLSCAASGITFEANTMGWYRQAPAKERELVAVITDTGSTNYADSVKGRFTISRDNAKNTVYLQMNSLKPEDTAVFYCKADAEPSSGTSAKNDYWGQGTQVSVSS” is “low polyreactivity”; for “QVQLVESGGGLVQAGGSLRLSCAASGITFEGYALGWYRQAPGKERELVAAIRSSGTSTYYADSVKGRFTISRDIAKNTVYLQMNSLKPEDTAVYYCNRARSSSRYDYWGQGTQVTVSS” it is “low polyreactivity”.

On to “QVQLVESGGGLVQAGGSLRLSCAASGITFEPYDMGWYRQAPGKERELVAAISTTGGRTYYADSVKGRFTISRDNAKNTVYLQMNSLKPEDTAVYYCAARYTTRRRYDYWGQGTQVTVSS”, for which the “polyreactivity (PSR sort gate)” value is reported as “high polyreactivity”. For the sequence “QVQLVESGGGLVQAGGSLRLSCAASGITFESNAMGWYRQAPGKEREFVAAISYDGGDTYYADSVKGRFTISRDNAKNTVYLQMNSLKPEDTAVYYCAAEPGWTMDYWGQGTQVTVSS”, the “polyreactivity (PSR sort gate)” value is “low polyreactivity”. The entry for “QVQLVESGGGLVQAGGSLRLSCAASGITFEVYAMGWYRQAPGKERELVAVITSVGSTNYADSVKGRFTISRDNAKNTVYLQMNSLKPEDTAVYYCASEKWTVRRFNPYTYYRYDYWGQGTQVTVSS” is “low polyreactivity”; for “QVQLVESGGGLVQAGGSLRLSCAASGITFFDYAMGWYRQAPGKERELVAAIDLSDGRTYYADSVKGRFTISRDNAKNTVYLQMNSLKPEDTAVYYCARQHEDYGYYWYYWYDYDYWGQGTQVTVSS” it is “low polyreactivity”. Take “QVQLVESGGGLVQAGGSLRLSCAASGITFFENAMGWYRQAPGKERELVAASSYSGGSTYYADSVKGRFTISRDNAKNTVYLQMYRLKPEDTAVYSCAADWYNFLYIRNRWGYGYWGQGSQVTVSS”: the “polyreactivity (PSR sort gate)” value is on record as “high polyreactivity”. As to “QVQLVESGGGLVQAGGSLRLSCAASGITFFFNAMGWYRQAPGKERELVAAITSGAGSTYYADSVKGRFTISRDNAKITVYLQMNSLKPEDTAVYYCASEWSYGGMDYWGQGTQVNVSS”, the “polyreactivity (PSR sort gate)” value is recorded as “low polyreactivity”. For the sequence “QVQLVESGGGLVQAGGSLRLSCAASGITFFGYAMGWYREAPGKERELVAGISRSTGRTYYADSVKGRFTISRDNAKNTVYLQMNILKPEDTAVYYCAARATRSLSRYMDYWGQGTQVTVSS”, the “polyreactivity (PSR sort gate)” value is recorded as “high polyreactivity”. As for “QVQLVESGGGLVQAGGSLRLSCAASGITFFLYAMGWYRQAPGKERELVAVISASGGSTYYADSVKGRFTISRDNAKNTVYLQMNSLKPEDTAVYYCAAGYRFYGFYALYYWGQGTQVTVSS”, the “polyreactivity (PSR sort gate)” value is listed as “high polyreactivity”. Consider “QVQLVESGGGLVQAGGSLRLSCAASGITFFPYAMGWYIQAPGKERELVADITWRGGRTYYADSVKGRFTISRDNAKNTVYLQMNSLKPEDTAVYYCAKVARQNWFRYNYDYWGQGTQVTVSS”, for which the “polyreactivity (PSR sort gate)” value is on record as “high polyreactivity”. As to “QVQLVESGGGLVQAGGSLRLSCAASGITFGANAMGWYRQAPGKERELVAHITWSGGDTYYADSVKGRFTISRDNAKNTVYLQMNSLKPEDTAVYYCNALQPGLGSPLGEYDYWGQGTQVTVSS”, the “polyreactivity (PSR sort gate)” value is reported as “low polyreactivity”.

For “QVQLVESGGGLVQAGGSLRLSCAASGITFGGYAMGWYRKAPGKERELVAAITSSGGITYYADSVKGRFTISRDNAKKTVYLLLNSLKPEDTAVYYCAKVPLEIVTIRDDEDYWGQGTQVTVSS”, the “polyreactivity (PSR sort gate)” value was “low polyreactivity”. In the case of “QVQLVESGGGLVQAGGSLRLSCAASGITFGKYAMGWYRQAPGKERELVAAISWSGGSTYYADSVKGRFTISRDNAKNTVYLQMNSLKPEDTAVYYCAASYPYRRGEFYYYRSSDDDYWGQGTQVTVSS”, the “polyreactivity (PSR sort gate)” value is recorded as “high polyreactivity”. In the case of “QVQLVESGGGLVQAGGSLRLSCAASGITFGPNAMGWYRQAPGKERELVAAISWRGGSTYYADSVKGRFTISRDNAKNTVYLQMNSLKPEDTAVYYCAKVQIPASYIRYDYWGQGTQVTLSS”, the “polyreactivity (PSR sort gate)” value is “low polyreactivity”. Regarding “QVQLVESGGGLVQAGGSLRLSCAASGITFGRKTMGWYRQAPGKERELVAAIDSGGNTYADSVKGRFTISRDNAKNTVYLQMNSLKPEDTAVYYCAVDGGVFSSYGYWGQGTLVTVSS”, the “polyreactivity (PSR sort gate)” value is “low polyreactivity”. Consider “QVQLVESGGGLVQAGGSLRLSCAASGITFGRNTMGWYRQAPGKERELVAAIDSGGNTYADSVKGRFTISRDNAKNTVYLQMNSLKPEDSAVYYCAVDGGEFSSYGYWGQGTQVTVSS”, for which the “polyreactivity (PSR sort gate)” value is reported as “low polyreactivity”.

Take “QVQLVESGGGLVQAGGSLRLSCAASGITFGSYAMGWYRQAPGKERELVAAINSRGSRTYYADSVKVRFTISRDNAKNTVYLQMNSLKPEDTAVYYCAASNSHVGPNDYWGQGTQVTVSS”: the “polyreactivity (PSR sort gate)” value is “high polyreactivity”. The entry for “QVQLVESGGGLVQAGGSLRLSCAASGITFGVYARGWYRQAPGKEREFVADIDRTRGSTYADSVKGRFTISRDNAMNTVYLQMNSLKPEDTAVYYCAAGWGFRFYYWYWGQGTHVTVSS” is “high polyreactivity”; for “QVQLVESGGGLVQAGGSLRLSCAASGITFGWYAMGWYRQAPGKERELVAAITWDGGSTYYADSVKGRFTFSRDNAKNTVYLQMNSLKPEDTAVYYCAAEYIYYYYLVARDYWGQGTQVTVSS” it is “high polyreactivity”; for “QVQLVESGGGLVQAGGSLRLSCAASGITFGYNAMGWYRQAPGKERELVAAISWRVGSTSYADSVKGRFTISRDNAKNTVYLQMNSLKPEDTAVYYCAAVRYNYNFKMYYWGQGTQVTVSS” it is “high polyreactivity”. On to “QVQLVESGGGLVQAGGSLRLSCAASGITFGYNTMGWYRQAPGKERELVAAISGSGGRTYYADSLKGRFTISRDNSKNTVYLQMNSLKPEDTAVYYCAARWPIWSSLYDYWGQGTQVTVSS”, for which the “polyreactivity (PSR sort gate)” value is listed as “high polyreactivity”.

In the case of “QVQLVESGGGLVQAGGSLRLSCAASGITFGYYAMGWYRQAHGKERELVAAITYSGGSTYYADSVKGRFTISRDNAKNTVYLQMNSIKPEDTAVYYCAADDGYTYYWAGYDSWGQGTQVSVSS”, the “polyreactivity (PSR sort gate)” value is recorded as “low polyreactivity”.
